Data published in publication PMC11414720, “Molecular basis of TMED9 oligomerization and entrapment of misfolded protein cargo in the early secretory pathway” (Science Advances, 2024).
Changes are numbered by the printed parent chain. Names and notes keep the numbering of the source. Values joined by “and” are separate entries in the source; they are usually repeats but may differ in a detail not shown here. Identical values can stand only once.

B1: full-length human TMED9 (transmembrane emp24 domain 9), FLAG-tagged (receptor, UniProt Q9BVK6 38-235, looked up)
chain: LYFHIGETEKKCFIEEIPDETMVIGNYRTQLYDKQREEYQPATPGLGMFVEVKDPEDKVILARQYGSEGRFTFTSHTPGEHQICLHSNSTKFSLFAGGMLRVHLDIQVGEHANDYAEIAAKDKLSELQLRVRQLVEQVEQIQKEQNYQRWREERFRQTSESTNQRVLWWSILQTLILVAIGVWQMRHLKSFFEAKKLV
notes: TMED9 (transmembrane emp24 domain 9), human, full length; Seen as octamer, dodecamer and higher-order oligomers; the rows are of the chain with itself; TMED9 has a signal peptide; No cleavage of the tag is described; also called WT TMED9; recombinant TMED9; source: Expi293F, transiently transfected, purified in LMNG+CHS (anti-FLAG resin, Superose 6 gel filtration); not shown: FLAG, N-terminal, …
B2: TMED9 W205A (receptor, human, UniProt Q9BVK6 38-235, looked up)
chain: B1 chain with W168A
notes: TMED9, human, mutant of the full-length protein; also called CC interface mutation W205A
B3: TMED9 Q177A (receptor, human, UniProt Q9BVK6 38-235, looked up)
chain: B1 chain with Q140A
notes: TMED9, human, mutant of the full-length protein; also called CC interface mutation Q177A
B4: TMED9 R223E (for gel filtration and mass photometry) (receptor, human, UniProt Q9BVK6 38-235, looked up)
chain: B1 chain with R186E
notes: TMED9, human, mutant of the full-length protein
B5: TMED9 E190R (receptor, human, UniProt Q9BVK6 38-235, looked up)
chain: B1 chain with E153R
notes: TMED9, human, mutant of the full-length protein; also called CC domain mutation E190R
B6: TMED9 R191E (receptor, human, UniProt Q9BVK6 38-235, looked up)
chain: B1 chain with R154E
notes: TMED9, human, mutant of the full-length protein; also called CC interface mutation R191E

What was measured:
[1] = molecular target: the molecule itself; assay: cryo-EM structure; purified TMED9 at 1.7 mg/ml in 20 mM tris pH 8.0, 150 mM NaCl, 0.02% LMNG+CHS; octamer refined with C2 symmetry, dodecamer with no symmetry
[2] = molecular target: the molecule itself; assay: mass photometry; Refeyn TwoMP; samples in 0.003% LMNG, 0.0003% CHS diluted from 7 μM into 25 mM Hepes pH 7.4, 150 mM KCl, 1 mM DTT, measured within 10 s
[3] = molecular target: the molecule itself; assay: SEC; gel filtration of overexpressed protein in octyl-β-glucoside, a harsher detergent
[4] = molecular target: the molecule itself; assay: SEC; Superose 6 gel filtration of TMED9 purified on anti-FLAG resin in LMNG+CHS (20 mM tris pH 8.0, 150 mM NaCl); solubilization by digitonin or glyco-diosgenin gave a similar size distribution

Protein	binding result [4]	binding result [2]	other results
B1			stoichiometry N [1]: 8 and 12; stoichiometry N [2]: ≥ 8; stoichiometry N [3]: 2
B2	binds		
B3	binds		
B4		binds	
B5		binds	
B6	binds		
